Measured values: US20150166670A1 (Hoffmann-La Roche, published 2015)

How the values were obtained:
human HER1 ectodomain = biological target: T1, human HER1 ectodomain (human, UniProt P00533 25-645); test: SPR Biacore T100, 37 C, antibody captured via anti-human IgG-Fc, ECD as analyte, 1:1 Langmuir fit
T1 construct: extracellular domain; also called hu HER1 ECD; Her1 ECD
Description: (§1) All experiments were performed on a Biacore T100 (GE Healthcare). Experimental results were analyzed using the T100 control and evaluation software package (GE Healthcare, v2.03). The assay format was a ‘multi cycle kinetic’ measurement on a CM5-chip. […] Using a concentration series, seven increasing concentrations of each of the antigens (human Her1, Her2, and Her3 ectodomain) were injected separately. […] Running buffer was PBS-T. Dilution buffer was PBST containing BSA (c=1 mg/mL). Capturing of MAbs<HerX> on flow cell 2, 3, and 4 with a concentration of approx. c=1 nM, flow 50/min, time 72 sec. […] Dissociation time: 1800 sec. Each concentration was analyzed as duplicate. Final regeneration was performed after each cycle using 3 M MgCl2 (recommended by vendor) with a contact time of 120 sec and a flow rate of 50 μl/min. Analysis of simultaneous binding: Her2/Her3, Her3/Her2 or Her1/Her2 were injected consecutively using the dual inject mode with a contact time of 180 sec. each. The antigen concentration was chosen for each antigen at the saturation as observed in the kinetics experiment. […] A temperature of 25° C. was chosen to minimize dissociation. Triplicates for each combination were determined. Flow rate 30 mL/min, dual inject with two injects, each 180 sec.

human HER3 ectodomain = biological target: T2, human HER3 ectodomain (human, UniProt P21860 20-643); test: as above
T2 construct: extracellular domain; also called hu HER3 ECD; Her3 ECD
Description: as §1

human HER2 ectodomain = biological target: T3, human HER2 ectodomain (human, UniProt P04626 23-652); test: SPR (Biacore T100), antibody captured via anti-human IgG-Fc on a CM5 chip, dual inject Her2 then Her3 ectodomain, 180 s each, 25 °C
T3 construct: extracellular domain; also called hu HER2 ECD; Her2 ECD
Description: as §1

T2 sequence (P21860 20-643): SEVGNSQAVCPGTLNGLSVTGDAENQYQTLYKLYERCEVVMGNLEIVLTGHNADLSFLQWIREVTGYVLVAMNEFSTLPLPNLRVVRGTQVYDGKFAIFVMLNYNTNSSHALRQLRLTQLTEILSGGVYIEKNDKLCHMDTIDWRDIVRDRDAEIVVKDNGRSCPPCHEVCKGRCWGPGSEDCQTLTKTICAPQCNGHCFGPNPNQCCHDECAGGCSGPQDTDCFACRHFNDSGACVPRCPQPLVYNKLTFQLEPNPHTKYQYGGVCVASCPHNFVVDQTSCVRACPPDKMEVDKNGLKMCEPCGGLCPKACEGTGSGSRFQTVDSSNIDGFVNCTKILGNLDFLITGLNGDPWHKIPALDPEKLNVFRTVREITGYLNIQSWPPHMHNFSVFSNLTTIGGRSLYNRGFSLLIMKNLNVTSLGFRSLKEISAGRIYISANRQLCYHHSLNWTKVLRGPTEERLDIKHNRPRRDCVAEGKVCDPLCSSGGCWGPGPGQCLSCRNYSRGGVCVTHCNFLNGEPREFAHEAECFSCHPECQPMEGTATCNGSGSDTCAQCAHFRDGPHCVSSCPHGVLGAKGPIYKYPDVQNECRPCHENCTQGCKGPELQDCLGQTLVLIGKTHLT

Binder	Kd (human HER1 ectodomain) [nM]	koff (human HER1 ectodomain) [s⁻¹]	kon (human HER1 ectodomain) [M⁻¹ s⁻¹]	t ½ (human HER1 ectodomain) [min]	Kd (human HER3 ectodomain) [nM]	koff (human HER3 ectodomain) [s⁻¹]	kon (human HER3 ectodomain) [M⁻¹ s⁻¹]	t ½ (human HER3 ectodomain) [min]	binding result (human HER2 ectodomain)
parental DAF (Her1-Her3 dual affinity antibody) (antibody, also called DAF antibody; Bispecific parent Her1/Her3 (with KiH)) heavy 1: not shown heavy 2: not shown light: DIQMTQSPSSLSASVGDRVTITCRASQNIATDVAWYQQKPGKAPKLLIYSASFLYSGVPSRFSGSGSGTDFTLTISSLQPEDFATYYCQQSEPEPYTFGQGTKVEIKRTVAAPSVFIFPPSDEQLKSGTASVVCLLNNFYPREAKVQWKVDNALQSGNSQESVTEQDSKDSTYSLSSTLTLSKADYEKHKVYACEVTHQGLSSPVTKSFNRGEC	14	0.021	1.4e+06	0.6	1.9	0.0037	2e+06	3.1	no binding
trispecific antibody KiH Her1-Her3 DAF-xHer2 (antibody, human IgG1, kappa, also called Trispecific Her1/Her3 xHer2) heavy 1: not shown heavy 2: not shown light 1: DIQMTQSPSSLSASVGDRVTITCRASQNIATDVAWYQQKPGKAPKLLIYSASFLYSGVPSRFSGSGSGTDFTLTISSLQPEDFATYYCQQSEPEPYTFGQGTKVEIKRTVAAPSVFIFPPSDEQLKSGTASVVCLLNNFYPREAKVQWKVDNALQSGNSQESVTEQDSKDSTYSLSSTLTLSKADYEKHKVYACEVTHQGLSSPVTKSFNRGEC light 2: DIQMTQSPSSLSASVGDRVTITCKASQDVSIGVAWYQQKPGKAPKLLIYSASYRYTGVPSRFSGSGSGTDFTLTISSLQPEDFATYYCQQYYIYPYTFGQGTKVEIKSSASTKGPSVFPLAPSSKSTSGGTAALGCLVKDYFPEPVTVSWNSGALTSGVHTFPAVLQSSGLYSLSSVVTVPSSSLGTQTYICNVNHKPSNTKVDKKVEPKSC	17	0.02	1.2e+06	0.6	1.8	0.0044	2.4e+06	2.6	
